Consider 9 variants from PMC2408616, “Modular Organization and Combinatorial Energetics of Proline–Tyrosine Nuclear Localization Signals” (PLoS Biology, 2008).

The labels stand for the following.
B1: MBP–Hrp1p NLS [S. cerevisiae] / Kap104p [yeast (S. cerevisiae)] (parent complex)
chain 1: RDRNDRDRDYNHRSGGNHRRNGRGGRGGYNRRNNGYHPYNR
chain 2: MASTWKPAEDYVLQLATLLQNCMSPNPEIRNNAMEAMENFQLQPEFLNYLCYILIEGESDDVLKQHYSLQDLQNNRATAGMLLKNSMLGGNNLIKSNSHDLGYVKSNIIHGLYNSNNNLVSNVTGIVITTLFSTYYRQHRDDPTGLQMLYQLLELTSNGNEPSIKALSKIMEDSAQFFQLEWSGNTKPMEALLDSFFRFISNPNFSPVIRSESVKCINTVIPLQTQSFIVRLDKFLEIIFQLAQNDENDLVRAQICISFSFLLEFRPDKLVSHLDGIVQFMLHLITTVNEEKVAIEACEFLHAFATSPNIPEHILQPYVKDIVPILLSKMVYNEESIVLLEASNDDDAFLEDKDEDIKPIAPRIVKKKEAGNGEDADDNEDDDDDDDDEDGDVDTQWNLRKCSAATLDVMTNILPHQVMDIAFPFLREHLGSDRWFIREATILALGAMAEGGMKYFNDGLPALIPFLVEQLNDKWAPVRKMTCWTLSRFSPWILQDHTEFLIPVLEPIINTLMDKKKDVQEAAISSVAVFIENADSELVETLFYSQLLTSFDKCLKYYKKKNLIILYDAIGRFAEKCALDETAMQIILPPLIEKWALLSDSDKELWPLLECLSCVASSLGERFMPMAPEVYNRAFRILCHCVELEAKSHQDPTIVVPEKDFIITSLDLIDGLVQGLGAHSQDLLFPQGTKDLTILKIMLECLQDPVHEVRQSCFALLGDIVYFFNSELVIGNLEDFLKLIGTEIMHNDDSDGTPAVINAIWALGLISERIDLNTYIIDMSRIILDLFTTNTQIVDSSVMENLSVTIGKMGLTHPEVFSSGAFANDSNWNKWCLSVNALDDVEEKSSAYMGFLKIINLTSTEVTMSNDTIHKIVTGLSSNVEANVFAQEIYTFLMNHSAQISAINFTPDEISFLQQFTS
B2: MBP–Nab2p NLS [S. cerevisiae] / Kap104p [yeast (S. cerevisiae)] (parent complex)
chain 1: DNSQRFTQRGGGAVGKNRRGGRGGNRGGRNNNSTRFNPLAKALGMAGESNM
chain 2: B1 chain 2

In the first assay the parent is B1. Nature of the assay: ITC; parent: -10.1.
Regarding chain 1 Y36L, the dG was -10 kcal/mol. Turning to chain 1 R19K, chain 1 R20K, chain 1 R23K, chain 1 R26K, the dG is -10 kcal/mol. For chain 1 R19A, chain 1 Y36A, the dG was -9.7 kcal/mol.

Consider chain 1 R32A, for which the dG was -10.5 kcal/mol. In the case of chain 1 R31A, the dG was -10 kcal/mol.

Variants of B2 are the subject of the next assay. Nature of the assay: ITC; parent: 37 nM.
For the variant chain 1 R35H, the Kd came out at 63 nM. Still for that read-out and setting: with chain 1 R18K, chain 1 R19K, chain 1 R22K, chain 1 R26K, chain 1 R29K the figure was 21 nM.

With chain 1 F36L, the Kd is 66 nM. Turning to chain 1 F36A, the dissociation constant Kd is 296 nM.
